Laboratory results taken from publication PMC8085991.

Test system: Nc1nc2c(ncn2[C@@H]2O[C@H](COP(=O)(O)OP(=O)(O)OP(=O)(O)O)[C@@H](O)[C@H]2O)c(=O)[nH]1
Test: purified protein
Settings: 59 nM GST-FlhFBb; GTP 0-100 μM; room temperature

## rFlhFBb (BB0270, GST-FlhFBb) (Borreliella burgdorferi B31)
  Km: 10.71 ± 2.08 µM
  Vmax: 113 µmol/min
  kcat: 0.0318 ± 0.00133 s⁻¹
  kcat/Km: 2970 M⁻¹ s⁻¹
